Substitutions are numbered along the chain they refer to.
Tests used:
β-actin = target: T1, β-actin (UniProt P60709 2-375); experiment: anti-FLAG affinity purification from Ad-Apwt-infected H1299 cells, SDS-PAGE, MALDI-TOF
T1 construct: also called beta-actin

[1] = target: T2, anaphase promoting complex subunit 1 (APC1) (Homo sapiens, UniProt Q9H1A4 1-1944); experiment: anti-FLAG immunoprecipitation from H1299 cells, APC1 immunoblot
T2 construct: Endogenous protein in lysates of H1299 (or PFF) cells, detected with a polyclonal anti-APC1 antibody or by MALDI-TOF; also called Cyclosome subunit 1; Protein TSG24
T2 sequence (Q9H1A4 whole entry, one chain of several): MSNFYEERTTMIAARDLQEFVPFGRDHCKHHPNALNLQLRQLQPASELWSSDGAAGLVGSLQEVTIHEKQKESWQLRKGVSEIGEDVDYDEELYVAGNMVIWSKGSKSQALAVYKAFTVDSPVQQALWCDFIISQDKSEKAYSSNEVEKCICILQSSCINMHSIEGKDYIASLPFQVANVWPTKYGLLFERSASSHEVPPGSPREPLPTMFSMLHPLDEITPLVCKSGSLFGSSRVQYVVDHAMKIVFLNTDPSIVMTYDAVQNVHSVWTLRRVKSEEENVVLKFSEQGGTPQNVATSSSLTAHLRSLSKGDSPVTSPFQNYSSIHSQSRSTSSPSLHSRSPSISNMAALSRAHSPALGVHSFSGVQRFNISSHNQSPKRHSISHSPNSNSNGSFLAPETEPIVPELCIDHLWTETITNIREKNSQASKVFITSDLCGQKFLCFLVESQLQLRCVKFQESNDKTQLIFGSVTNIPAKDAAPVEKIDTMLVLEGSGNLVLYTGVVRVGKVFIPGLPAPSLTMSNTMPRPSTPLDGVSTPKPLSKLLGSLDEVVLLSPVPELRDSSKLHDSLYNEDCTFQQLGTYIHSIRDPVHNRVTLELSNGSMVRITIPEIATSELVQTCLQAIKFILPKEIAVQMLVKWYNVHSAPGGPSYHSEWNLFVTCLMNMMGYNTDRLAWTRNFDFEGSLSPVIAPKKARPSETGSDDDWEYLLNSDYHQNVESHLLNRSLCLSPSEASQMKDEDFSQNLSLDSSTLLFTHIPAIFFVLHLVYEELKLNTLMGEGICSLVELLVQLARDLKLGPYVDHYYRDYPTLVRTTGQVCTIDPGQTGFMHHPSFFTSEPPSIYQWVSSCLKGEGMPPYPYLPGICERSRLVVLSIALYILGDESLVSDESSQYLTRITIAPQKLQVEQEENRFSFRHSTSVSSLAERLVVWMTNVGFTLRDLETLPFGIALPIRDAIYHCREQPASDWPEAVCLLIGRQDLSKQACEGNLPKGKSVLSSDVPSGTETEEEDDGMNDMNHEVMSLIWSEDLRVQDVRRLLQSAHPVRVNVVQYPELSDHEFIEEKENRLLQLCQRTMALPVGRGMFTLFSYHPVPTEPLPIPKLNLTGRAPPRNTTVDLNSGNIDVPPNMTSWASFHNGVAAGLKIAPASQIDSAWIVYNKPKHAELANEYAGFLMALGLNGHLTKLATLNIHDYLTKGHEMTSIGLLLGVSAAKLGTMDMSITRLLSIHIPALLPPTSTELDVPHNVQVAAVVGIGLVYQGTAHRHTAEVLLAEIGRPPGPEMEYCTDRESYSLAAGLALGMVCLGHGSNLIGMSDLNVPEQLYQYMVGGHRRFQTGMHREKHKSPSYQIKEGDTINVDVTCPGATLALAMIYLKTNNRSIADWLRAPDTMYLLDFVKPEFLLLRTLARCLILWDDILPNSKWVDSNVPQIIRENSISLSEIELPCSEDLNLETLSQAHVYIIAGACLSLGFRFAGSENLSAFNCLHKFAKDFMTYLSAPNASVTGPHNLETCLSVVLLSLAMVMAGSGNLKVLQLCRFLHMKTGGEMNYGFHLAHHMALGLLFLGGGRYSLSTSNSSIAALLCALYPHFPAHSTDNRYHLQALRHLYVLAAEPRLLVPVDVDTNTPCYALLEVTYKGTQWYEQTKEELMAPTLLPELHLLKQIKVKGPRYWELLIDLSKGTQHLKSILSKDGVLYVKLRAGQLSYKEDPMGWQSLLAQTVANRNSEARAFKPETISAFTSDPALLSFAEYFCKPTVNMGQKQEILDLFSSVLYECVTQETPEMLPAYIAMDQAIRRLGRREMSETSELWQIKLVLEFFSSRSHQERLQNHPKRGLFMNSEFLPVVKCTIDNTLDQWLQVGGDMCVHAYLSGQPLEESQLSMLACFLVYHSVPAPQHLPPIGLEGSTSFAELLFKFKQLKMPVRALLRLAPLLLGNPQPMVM

B1: FLAG-tagged wild type Apoptin expressed from adenovirus Ad-Apwt (other)
chain: MNALQEDTPPGPSTVFRPPTSSRPLETPHCREIRIGIAGITITLSLCGCANARAPTLRSATADNSESTGFKNVPDLRTDQPKPPSKKRSCDPSEYRVSELKESLITTTPSRPRTAKRRIRL
notes: Expressed in infected H1299 or PFF cells and pulled down from lysates on anti-FLAG beads; also called FLAG-Apoptin; FLAG-tagged Apoptin
binding result (β-actin): binds

B2: triple FLAG-tagged Ap-pmNLS2 (other)
chain: B1 chain with K116A, R117A, R118A
notes: not shown: triple FLAG tag
binding result [1]: no binding

B3: triple FLAG-tagged Ap-SV40NLS (other)
chain: MNALQEDTPPGPSTVFRPPTSSRPLETPHCREIRIGIAGITITLSLCGCANARAPTLRSATADNSESTGFKNVPDLRTDQPKPPSKKRPKKKRKV
notes: The make-up (Apoptin 1-88 plus SV40 LT NLS) is described for the GFP construct; not shown: triple FLAG tag
binding result [1]: no binding
